PMC4922016, “Loss of flotillin expression results in weakened desmosomal adhesion and Pemphigus vulgaris-like localisation of desmoglein-3 in human keratinocytes” (Scientific Reports, 2016)

T1: GST fusion of the cytoplasmic domain of human desmoglein-3 (human, UniProt P32926 641-999)
T1 construct: cytoplasmic domain of human desmoglein-3, cloned by PCR from HaCaT cells into pGEX-4T1; worked out from the printed primers: the forward primer begins with the codons for LTCDCGA, the reverse primer holds the stop codon (ends DPCSRLI-stop); also called Dsg3 tail; cytoplasmic tail of Dsg3; source: E. coli Rosetta (DE3) pLysS, purified (glutathione sepharose)
T1 sequence (looked up): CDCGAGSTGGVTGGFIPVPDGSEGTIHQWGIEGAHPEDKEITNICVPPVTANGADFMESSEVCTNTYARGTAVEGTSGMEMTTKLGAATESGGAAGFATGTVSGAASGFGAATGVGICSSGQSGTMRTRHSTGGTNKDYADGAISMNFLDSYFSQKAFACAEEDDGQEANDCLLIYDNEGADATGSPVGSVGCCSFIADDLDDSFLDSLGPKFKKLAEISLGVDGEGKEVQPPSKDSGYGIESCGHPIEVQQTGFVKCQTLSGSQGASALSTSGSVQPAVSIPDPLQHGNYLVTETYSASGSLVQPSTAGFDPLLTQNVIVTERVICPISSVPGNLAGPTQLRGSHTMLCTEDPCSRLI

T2: flotillin-1-GST fusion (rat, full length) (rat, UniProt Q9Z1E1 1-428)
T2 construct: full length rat flotillin-1 in the pET41a vector; pET41a may add further tags (His, S-tag) besides GST (surmised); also called Flot-GST; flotillin-GST; source: E. coli Rosetta (DE3) pLysS, purified (glutathione sepharose, eluted with reduced glutathione)
T2 sequence (looked up): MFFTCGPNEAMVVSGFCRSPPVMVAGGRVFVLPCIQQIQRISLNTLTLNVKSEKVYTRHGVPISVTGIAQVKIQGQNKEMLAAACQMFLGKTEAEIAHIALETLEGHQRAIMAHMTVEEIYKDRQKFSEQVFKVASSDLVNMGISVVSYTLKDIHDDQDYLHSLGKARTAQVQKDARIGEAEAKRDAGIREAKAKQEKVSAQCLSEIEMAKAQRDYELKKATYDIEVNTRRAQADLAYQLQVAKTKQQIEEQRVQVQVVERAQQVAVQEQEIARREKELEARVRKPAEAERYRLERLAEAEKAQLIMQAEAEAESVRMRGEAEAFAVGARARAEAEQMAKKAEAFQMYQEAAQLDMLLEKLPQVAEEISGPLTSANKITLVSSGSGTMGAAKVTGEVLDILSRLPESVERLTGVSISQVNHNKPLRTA

B1: flotillin-1 (natural protein, human (endogenous in HaCaT), UniProt O75955 1-427, looked up)
chain: MFFTCGPNEAMVVSGFCRSPPVMVAGGRVFVLPCIQQIQRISLNTLTLNVKSEKVYTRHGVPISVTGIAQVKIQGQNKEMLAAACQMFLGKTEAEIAHIALETLEGHQRAIMAHMTVEEIYKDRQKFSEQVFKVASSDLVNMGISVVSYTLKDIHDDQDYLHSLGKARTAQVQKDARIGEAEAKRDAGIREAKAKQEKVSAQYLSEIEMAKAQRDYELKKAAYDIEVNTRRAQADLAYQLQVAKTKQQIEEQRVQVQVVERAQQVAVQEQEIARREKELEARVRKPAEAERYKLERLAEAEKSQLIMQAEAEAASVRMRGEAEAFAIGARARAEAEQMAKKAEAFQLYQEAAQLDMLLEKLPQVAEEISGPLTSANKITLVSSGSGTMGAAKVTGEVLDILTRLPESVERLTGVSISQVNHKPLRTA
notes: flotillin-1, endogenous in human HaCaT keratinocytes; also called Flot-1; source: endogenous, HaCaT lysate
B2: flotillin-2 (natural protein, human (endogenous in HaCaT), UniProt Q14254 1-428, looked up)
chain: MGNCHTVGPNEALVVSGGCCGSDYKQYVFGGWAWAWWCISDTQRISLEIMTLQPRCEDVETAEGVALTVTGVAQVKIMTEKELLAVACEQFLGKNVQDIKNVVLQTLEGHLRSILGTLTVEQIYQDRDQFAKLVREVAAPDVGRMGIEILSFTIKDVYDKVDYLSSLGKTQTAVVQRDADIGVAEAERDAGIREAECKKEMLDVKFMADTKIADSKRAFELQKSAFSEEVNIKTAEAQLAYELQGAREQQKIRQEEIEIEVVQRKKQIAVEAQEILRTDKELIATVRRPAEAEAHRIQQIAEGEKVKQVLLAQAEAEKIRKIGEAEAAVIEAMGKAEAERMKLKAEAYQKYGDAAKMALVLEALPQIAAKIAAPLTKVDEIVVLSGDNSKVTSEVNRLLAELPASVHALTGVDLSKIPLIKKATGVQV
notes: flotillin-2, endogenous in human HaCaT keratinocytes; also called Flot-2; source: endogenous, HaCaT lysate
B3: Dsg3-MBP fusion protein (domain or fragment, human, UniProt P32926 641-999, looked up)
chain: T1 sequence (looked up)
notes: cytoplasmic domain of human desmoglein-3, cloned by PCR from HaCaT cells into pMAL-c2X; worked out from the printed primers: the forward primer begins with the codons for LTCDCGA, the reverse primer holds the stop codon (ends DPCSRLI-stop); source: E. coli Rosetta (DE3) pLysS, purified (amylose resin)

Legend:
[1] = molecular target: T1, GST fusion of the cytoplasmic domain of …; assay: pull-down; GST-tagged cytoplasmic domains of Dsg1-3 immobilised on glutathione sepharose, HaCaT lysate (1 mg), overnight at 4 °C; 10 mM Tris-HCl pH 8.0, 150 mM NaCl, 5 mM EDTA, 0.5% Triton X-100, 60 mM N-octylglucoside; Western blot; GST as negative control; conditions: one partner purified
[2] = molecular target: T2, flotillin-1-GST fusion (rat, full …); assay: pull-down; Dsg3-MBP (5 μg) immobilised on amylose resin, eluted flotillin-GST proteins in solution; 50 mM Tris-HCl pH 7.5, 150 mM NaCl, 0.01% Triton X-100, 1 mM DTT, 1 mM EDTA, 1% BSA, on ice 2-3 h; Western blot; MBP and GST as controls; conditions: both partners purified

Binder | relative amount pulled down (normalised to the fusion protein), against the Dsg1 and Dsg2 pulldowns [1] | binding result [2]
B1 | ~2 fold | –
B2 | ~2 fold | –
B3 | – | binds
